From article PMC6265457 (Nucleic Acids Research, 2018)
Values belong to the binder of their own block, whether it stands above or below them.

Experiments:
Test in all cases: pull-down
FLAG-Swd2 = biological target: T1, FLAG-Swd2 (S. cerevisiae, UniProt P36104 1-329)
T1 sequence: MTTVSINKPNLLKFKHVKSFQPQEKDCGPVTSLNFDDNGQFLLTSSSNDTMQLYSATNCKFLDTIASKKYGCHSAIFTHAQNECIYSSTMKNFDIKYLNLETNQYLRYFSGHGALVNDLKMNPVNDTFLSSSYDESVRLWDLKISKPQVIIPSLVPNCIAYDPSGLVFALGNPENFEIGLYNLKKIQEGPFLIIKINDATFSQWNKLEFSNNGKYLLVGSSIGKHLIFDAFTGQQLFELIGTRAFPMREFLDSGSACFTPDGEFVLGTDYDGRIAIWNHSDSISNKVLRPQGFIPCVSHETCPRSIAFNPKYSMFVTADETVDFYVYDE

FLAG-Spp1 (wild type) = biological target: T2, FLAG-Spp1 (wild type) (S. cerevisiae, UniProt Q03012 1-353)
T2 sequence: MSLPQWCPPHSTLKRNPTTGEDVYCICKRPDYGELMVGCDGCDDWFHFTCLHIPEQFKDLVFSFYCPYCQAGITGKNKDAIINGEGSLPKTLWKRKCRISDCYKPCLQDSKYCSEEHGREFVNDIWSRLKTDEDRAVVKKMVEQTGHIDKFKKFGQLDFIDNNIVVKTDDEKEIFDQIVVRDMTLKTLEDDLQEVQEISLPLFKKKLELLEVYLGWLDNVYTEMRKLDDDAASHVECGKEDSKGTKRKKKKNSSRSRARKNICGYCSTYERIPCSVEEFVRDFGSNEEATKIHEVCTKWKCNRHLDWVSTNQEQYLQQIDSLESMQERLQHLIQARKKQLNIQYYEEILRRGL

FLAG-Swd1 = biological target: T3, FLAG-Swd1 (S. cerevisiae, UniProt P39706 1-426)
T3 sequence: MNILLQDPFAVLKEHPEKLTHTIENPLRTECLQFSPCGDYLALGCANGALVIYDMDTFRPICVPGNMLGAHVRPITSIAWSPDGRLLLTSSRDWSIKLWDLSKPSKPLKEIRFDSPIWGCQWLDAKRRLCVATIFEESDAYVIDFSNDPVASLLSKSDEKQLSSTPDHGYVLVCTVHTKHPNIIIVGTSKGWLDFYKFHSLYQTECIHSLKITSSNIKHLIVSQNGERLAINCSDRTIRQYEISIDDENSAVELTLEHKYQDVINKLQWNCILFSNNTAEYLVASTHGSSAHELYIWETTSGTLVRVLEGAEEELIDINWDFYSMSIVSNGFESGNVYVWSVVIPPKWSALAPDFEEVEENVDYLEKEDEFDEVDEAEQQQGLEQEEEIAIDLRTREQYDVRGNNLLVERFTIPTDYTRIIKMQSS

binding result (FLAG-Swd2): binds
B1: GST-tagged Set1 fragment, residues 124–229 (domain or fragment)
chain: TESALLLQQRPPSVLRYNTDNLKSKFHYFDPIKGEFFNKDKMLSWKATDKEFSETGYYVVKELQDGQFKFKIKHRHPEIKASDPRNENGIMTSGKVATHRKCRNSL

binding result (FLAG-Spp1 (wild type)): binds
B2: GST-tagged n-SET fragment (Set1 residues 762–937) (domain or fragment)
chain: MDLQNAIKDEEDMLILKQLLSTYTPTVTPETSAALEYKIWQSRRKVLEEEKASDWQIELNGTLFDSELQPGSSFKAEGFRKIADKLKINYLPHRRRVHQPLNTVNIHNERNEYTPELCQREESSNKEPSDSVPQEVSSSRDNRASNRRFQQDIEAQKAAIGTESELLSLNQLNKRK

binding result (FLAG-Swd1): binds
B3: GST-tagged Set1 fragment, residues 1–123 (domain or fragment)
chain: MSNYYRRAHASSGSYRQPQEQPQYSRSGHYQYSNGHSHQQYSSQYNQRRRYNHNDGTRRRYNDDRPHSSNNASTRQYYATNNSQSGPYVNKKSDISSRRGMSQSRYSNSNVHNTLASSSGSLP
